The record followed here is article PMC5799202, “Eis, a novel family of arylalkylamine N-acetyltransferase (EC 2.3.1.87)” (Scientific Reports, 2018).

Like-named read-outs stand apart in the source and are kept apart here.

One series concerns the target T1, Eis_Mtb (Mycobacterium tuberculosis, UniProt P9WFK7).
T1 construct: gene eis
Briefly: dead-end inhibition kinetics, DTNB acetyltransferase assay, purified enzyme. The series is classed as biochemical.

Series [1] has as its system CCC(=O)SCCNC(=O)CCNC(=O)[C@H](O)C(C)(C)COP(=O)(O)OP(=O)(O)OC[C@H]1O[C@@H](n2cnc3c(N)ncnc32)[C@H](O)[C@@H]1OP(=O)(O)O. The series is described as follows: purified protein.
Another series concerns NCCc1c[nH]cn1. The series is described as follows: purified protein.
In series [2] the test system is CC(=O)SCCNC(=O)CCNC(=O)[C@H](O)C(C)(C)COP(=O)(O)OP(=O)(O)OC[C@H]1O[C@@H](n2cnc3c(N)ncnc32)[C@H](O)[C@@H]1OP(=O)(O)O. Briefly: purified protein. To be noted: acetyl-CoA binding first followed by histamine (ordered sequential mechanism).
The mark [3] stands for this setting: acetyl-CoA binds after acetyl-CoA to form a precatalytic ternary complex.

T1 sequence (P9WFK7 2-402): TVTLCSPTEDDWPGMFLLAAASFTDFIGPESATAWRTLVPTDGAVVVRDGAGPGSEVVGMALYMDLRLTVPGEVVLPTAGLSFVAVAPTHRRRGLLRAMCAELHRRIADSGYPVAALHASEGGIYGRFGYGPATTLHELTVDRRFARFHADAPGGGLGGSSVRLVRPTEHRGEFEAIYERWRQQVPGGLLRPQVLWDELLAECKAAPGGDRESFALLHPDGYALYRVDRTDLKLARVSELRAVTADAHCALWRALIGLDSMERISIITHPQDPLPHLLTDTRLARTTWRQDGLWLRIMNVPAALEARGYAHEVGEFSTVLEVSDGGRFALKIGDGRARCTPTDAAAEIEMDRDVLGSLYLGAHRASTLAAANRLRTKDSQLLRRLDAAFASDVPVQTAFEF

For the compound `CCCCCCCC/C=C\CCCCCCCC(=O)SCCNC(=O)CCNC(=O)[C@H](O)C(C)(C)COP(=O)(O)OP(=O)(O)OC[C@H]1O[C@@H](n2cnc3c(N)ncnc32)[C@H](O)[C@@H]1OP(=O)(O)O` [oleoyl-CoA], the Ki on Eis_Mtb stood at 0.268 ± 0.0684 µM.
On to `OCCc1ccc(O)cc1` [tyrosol], for which the Ki on Eis_Mtb (read-out: Ki) came out at 175 ± 48.7 µM.
As to “Eis_Msm (Mycolicibacterium smegmatis MC2 155)”, in series [1], the Michaelis constant (Km) came to 98 ± 23 µM.
Take “Eis_Mtb (Mycobacterium tuberculosis H37Rv)”: the Km result in the series on NCCc1c[nH]cn1 was “(28 ± 5.2) × 10^2 μM”; in series [1], 47 ± 10 µM; in series [2], “(1.2 ± 0.27) × 10^2 μM”. Further, the kcat came out at 0.5 ± 0.04 s⁻¹ in the series with NCCc1c[nH]cn1 (setting [3]), 0.6 ± 0.1 s⁻¹ in series [1] and 5.6 ± 0.2 s⁻¹ in series [2]. For the same compound, the catalytic efficiency (kcat/Km) in the series on NCCc1c[nH]cn1 (setting [3]) amounted to 170 ± 83 M⁻¹ s⁻¹; in series [1] it was 14000 ± 4000 M⁻¹ s⁻¹; in series [2], 52000 ± 13000 M⁻¹ s⁻¹.

Broadly, the Ki is a measure of affinity in units of concentration, obtained from inhibition or displacement. What is called Km is the substrate concentration at which the rate is half of its maximum. In general, kcat refers to the number of substrate molecules converted per active site and unit of time at saturation. Broadly, the kcat/Km is the second-order rate constant that governs catalysis at low substrate concentration.
